The source of these data is article doi:10.1101/2025.09.15.676363.

Assay [1] concerns the target Full-length I175D Pcad fused to a C-terminal mCherry tag (human). Kind of assay: co-IP.
The target in assay [2] is Full-length W2A Pcad fused to a C-terminal mCherry tag (human). Kind of assay: co-IP.
Assay [3] addresses WT-Dsg2, complete extracellular region (EC1-5) of human desmoglein-2 (human) (UniProt Q14126). Kind of assay: single-molecule AFM binding assay.
The target of assay [4] is W2A-Dsg2, complete extracellular region (EC1-5) of human desmoglein-2 (human) (UniProt Q14126). Kind of assay: single-molecule AFM binding assay.

“Desmoglein-2 (Dsg2), endogenous in A431 cells (from UniProt Q14126 50-1118) (natural protein)”: the Dsg2 binding capacity relative to WT-Pcad (Dsg2/Pcad pull-down ratio) in assay [1] stood at 80%; in assay [2], 25%.

“I175D-Pcad, complete extracellular region (EC1-5) of human P-cadherin (from UniProt P22223 25-654) (domain or fragment)” gave a binding probability in assay [3] of 7.8%. Regarding “WT-Pcad, complete extracellular region (EC1-5) of human P-cadherin (from UniProt P22223 25-654) (domain or fragment)”, the figures for the binding probability in assay [4] and in assay [3] were 4% and 8%, respectively. Take “A5P-Pcad, complete ectodomain of human P-cadherin (from UniProt P22223 25-654) (domain or fragment)”: the binding probability in assay [3] amounted to 4.5%. The substance “W2A-Pcad, complete extracellular region (EC1-5) of human P-cadherin (from UniProt P22223 25-654) (domain or fragment)” yielded a binding probability in assay [3] of 4%.
